This is an account of results in the DeepSol protein solubility set.

The data set can be described thus: soluble on expression in E. coli; label from the status in PepcDB or PDB records.
For the sequence “MGSDKIHHHHHHMITYQEQWQKMQMALAIRRIPQAMLFSGSLHCGLIEFTNQVIKLLLCKIKQNEPCLTCMDCQMIERFEHPDVEWIKPERSGGIIKIDQIRGLQSTAFLTPQRTNHKLIIIESAESMNIAASNALLKILEEPAQHTIFILLAQQIGNIPPTVLSRCQITQFAVFDELPCNNLLALGEYYTQELNSTMVFKHSESILEGLIAIIERREHPCTLAAQWIQHELSAFLWFLYLIYSQLQYMHLFRVAYSGTLTKQLNKLSSLLNPVMIFAQVDKINTLLRKLSHNMNINHTLVLEDLLFSLVVDY”, the “soluble on expression in E. coli” value is given as “not soluble”.

Turning to “MTTKFVVGYDGSAASRRALDFAMERAKAGGASIIVAHVLEWSPYSFLTPTEIEERHKRRAEEMARAETAILAPLKAELAGSGVEIETAIRYGQVADTLCDIATKSGAAQIFIARQGESGLAARVFGSVAGTLAQYAPVPCTIVP”, the “soluble on expression in E. coli” value is “not soluble”. The value for “MDIHVLSYGLGNQLSQYAFFINRRQLMQRAYAFYAFKQHNGYELDRIFGLKEGLPWYLQFVRVVFRLGISRRFYSKRTADFVLSLFRIKVIDEAYNYEFDPSLLKPWFGIRILYGGWHDSRYFHPSEAAVRTAFSFPPLDDVNDAILQQIDAVYGVSIHVRRGDYLKGINSNLFGGIATLEYYRNAIGWAITYCKHRSLEIKFYVFSDDIDWCKQNLGLRDAVYVSGNSKTDSWKDILLMSHCRANIIANSTFSWWAAWLNQQPNKVVICPTKFINTDSPNQTIYPAAWHQIEGLEHHHHHH” was “not soluble”; that for “MTSSDKSLSHDVFVYGSFQEPSVVNLILECSPVMVPAQLHGYHVYRLKGRLHACISPSENGLINGKILTGLTDSQLENLDMIEGSEYVRKTVEVVLTDTSEKKQVETYVWANKDDPNLYGEWDFEEWRRLHMDKFIEASTKFIEWKKNPDGRSREEFEKFVFDDPPTAA” was “soluble”.

Take “GTQSTHESLKPQRVQFQSRNFHNILQWQPGRALTGNSSVYFVQYKIYGQRQWKNKEDCWGTQELSCDLTSETSDIQEPYYGRVRAASAGSYSEWSMTPRFTPWWETKIDPPVMNITQVNGSLLVILHAPNLPYRYQKEKNVSIEDYYELLYRVFIINNSLEKEQKVYEGAHRAVEIEALTPHSSYCVVAEIYQPMLDRRSQRSEERCVEIP”: the “soluble on expression in E. coli” value is “soluble”. The value for “MSLAAHYDGLEKRTGAPYYGKKAEKVCNCAECLVFRRDVETGRLRLSNAYFCKVRLCSMCAWRRSLKIASHNKLIVEEANREYKPSWIFLTLTVRNVDGDDLKQTITDMMKAWNRLFGYKVVKTSVLGYFRALEITKNHEQNTYHPHFHVLIPVKRSYFTGKRYIKQAEWTSLWKRAMKLDYTPIVHVQRVKGKKGIDAEGIEKEVRKEMEEQKAILEISKYPVKDTDVIRGNEVTEENLDTVYYLDDALNARRLIGYGGILKEIHKELNLTDAEDGDLVRIEEDDDAVANETFEVMARWHVGIKNYIIQEGHHHHHH” was “soluble”; that for “MKITAVETLYCNAGWRNLSFLKISTDEGLVGWAEFPENHINNVLSPLVRHMGQQILGEDPRRIHPVIDRLRRAAWGVPFGAVSRAIGAIENALVDIKAKAIGVPAYELIGGRMRDDIRMYWSHCGSYHVTNWKDLGVPRITSLDDVKSLGRQVRESGYHALKTNLMMFDRPEPYMYRPGFAGGSGDPDRNPLRSAISAAVDQMTAFREGAGPDIGLKLDVNFNFRPEGYIRLAHALEPVDLDWLEIDNFDAKAVAQVRRASRIPIASCETLSGRRQLRPYLEEQAVDVVIIDVPWNGIYEAMRMAALADSFEVNVATHNFCGPIATLISAHFCAAVPNFRVMEMDVVQVPWTNDLITNPPTIERGYMRLPDGPGWGADVNEEALRAHPPVAAKH” was “not soluble”.

On to “MGHHHHHHSHMEPGEELEEEGSPGGREDGFTAEHLAAEAMAADMDPWLVFDARTTPATELDAWLAKYPPSQVTRYGDPGSPNSEPVGWIAVYGQGYSPNSGDVQGLQAAWEALQTSGRPITPGTLRQLAITHHVLSGKWLMHLAPGFKLDHAWAGIARAVVEGRLQVAKVSPRAKEGGRQVICVYTDDFTDRLGVLEADSAIRAAGIKCLLTYKPDVYTYLGIYRANRWHLCPTLYESRFQLGGSARGSRVLDRANNVELT”, for which the “soluble on expression in E. coli” value is “not soluble”. Take “LKDVLNILLMDEISKLKDFLSNLDYIKPKVNIEEEIIEIRKEDIINALKLFKGKYEIEVDKIPKAVYVYLVKKNILFLYPQRGTLKPQSFLVWNAIKRVL”: the “soluble on expression in E. coli” value is listed as “soluble”.

In the case of “SGGRHIQAIRCWTIWKYMKDYFPISLVKTAELDPSRNYIAGFHPHGVLAVGAFANLCTESTGFSSIFPGIRPHLMMLTLWFRAPFFRDYIMSAGLVTSEKESAAHILNRKGGGNLLGIIVGGAQEALDARPGSFTLLLRNRKGFVRLALTHGAPLVPIFSFGENDLFDQIPNSSGSWLRYIQNRLQKIMGISLPLFHGRGVFQYSFGLIPYRRPITTVVGKPIEVQKTLHPSEEEVNQLHQRYIKELCNLFEAHKLKFNIPADQHLEFC”, the “soluble on expression in E. coli” value is listed as “soluble”. Consider “EDICFLLADGRVYVAANQSFEPELLLSSSADSRLYVTDRGLFICAENRIYFIEKGRKTTQFPIADVLGVGAMNESNTAYIALGEEGLASLLLAEGSTAEAMPVAFDGPGDNDFYEMRFSHGRLYAASGLWGTNLMGHAGMVKLYDGNRWTNFDKKTVQEQLGGGFSFNDAIDIAVSNGDPDHFFVGTWGNGLFEFKDGKAIARYSGNETAIAECNPGDARVKAIAFDNKGNLWGTLGAVGKNIFMYDPQSSTWHSFSYPDVANLASFGNMIILPNGDKWVNILHRSGGSTRKGVLIFNDRGTPETTSDDSHLYVEQFVNRLGAAIGHKTIYAMAVDHNGSVWMGSDIGIFGVYNAAGVLSSTSTPIAVRPVGGEEPNLYYVLDKVTVTDIVVDKLNHKWVATQGTGLYLLSEDCSKILAQFTVENSPLLSNNILSLALNDDNGLLYIGTADGLMTFQTGTGSGSASELDGVYVYPNPLRPEYPDGVTIAGLQAGCSVKITDTTGRLLYQTESVTTEVKWNARGADGNRVASGVYAVAVYDPVSKKSKLIRFAVIR”, for which the “soluble on expression in E. coli” value is “not soluble”.

For the sequence “MAAKFHLKKAKDGQFHFNLHAANGEIILTSELYKAKDSALGGIESVRKNSQRDGAFEVKPANNGKFHFVLKATNGQVVGQSQLYASQANAEAGVQSVKRATPEAGLSDES”, the “soluble on expression in E. coli” value is “not soluble”. For “GMSTPSPALFFNTVNAYQRSAAIKAAVELNVFTAISQGIESSQSLAQKCQTSERGMRMLCDYLVIIGFMTKQAEGYRLTSDSAMFLDRQSKFYVGDAIEFLLSPMITNGFNDLTAAVLKGGTAISSEGTLSPEHPVWVQFAKAMSPMMANPAQLIAQLVNENKIEPLKVLDISASHGLFGIAVAQHNPNAEIFGVDWASVLEVAKENARIQGVASRYHTIAGSAFEVDYGNDYDLVLLPNFLHHFDVATCEQLLRKIKTALAVEGKVIVFDFIPNSDRITPPDAAAFSLVMLATTPNGDAYTFAEYESMFSNAGFSHSQLHSLPTTQQQVIVAYK”, the “soluble on expression in E. coli” value was “soluble”. Regarding “MTKITVLSGKGGTGKTTVSVNMAKALSESYRVQLLDADVEEPNDHIFFNVDVSFEEPVHLMIPVVDNSVCIRCGECASTCQFGAISVFPSGTFVFESLCHGCGACSIMCPVNAISERPKEIGKIRFGTADGNISFGMGILNIGERTGVPVIRKLKKHIDEKADVVIVDAPPGTSCPVVESLRNTDFALLVTEPTAFGLHDLKLAVELTKEMGIPSGIVVNRYIPGNTIIEEFADEEGIPVLLKIPFKREIASLCAEGKLIVEAFQDMKKDFLELFEKIEVMVRLEHHHHHH”, the “soluble on expression in E. coli” value was “soluble”. As for “MNTIVVAQLQRQFQDYIVSLYQQGFLDNQFSELRKLQDEGTPDFVAEVVSLFFDDCSKLINTMSISLERPDNVDFKQVDSGVHQLKGSSSSLCFVLSVGARRVKNVCISFKECCDVQNREGYSSNSHTNCDNDIWHRCLRCLQQVDYEYKMLKTKLQDLFNVSFKLCENLLVLLLEKQILQAGGTIPQVDIN”, the “soluble on expression in E. coli” value is recorded as “soluble”. The value for “STSAAQQGRNQNGEYNILDSIIAETRLSPDDEAYDIAKRGVSAFIEELLKPQNDGEPVKKAMVDRMIAEIDAKLSTQMDEILHHPDFQALESAWRGLQLLVDRTNFRENIKIEILSVSKQDLLDDFEDSPEVMQSGLYKHIYTAEYGQFGGQPVGAIIANYYMSPSSPDVKLMQYVSSVACMAHAPFVAAAGPKFFGLESFTGLPDLKDLKDHFEGPQFAKWQSFRQSEDSRYVALTVPRFLLRTPYDPEENPVKSFAYKETVANSHEHYLWGNTAYAFGTKLTDSFAKYRWCPNIIGPQSGGAVEDLPLHHFESMGEIETKIPTEVLVSDRREYELAEEGFISLTMRKGSDNAAFFSASSVQKPKFFGISAEGKAAELNYKLGTQLPYMMIVNRLAHYLKVLQREQLGSWKERTDLELELNKWIRQYVADQENPSAEVRGRRPLRAAQIIVSDVEGEPGWYRVSLNVRPHFKYMGADFTLSLVG” was “not soluble”; that for “MGSDKIHHHHHHMNEIFVFHGQEVRTVTINNEPWFVGKDVADILGYSKSRNAIALHVDEDDALKQGITDNLGRMQETIIINESGLYSLILSSKLPQVKEFKRWVTSEVLPQIRQQGAYVPENLSDEAFIALFTGQKKLKEHQLALAQDVDYLKNEQPIHPSFAQALLKKRKARVVSCLGGMDSPAYADKVFAQSVFRQAEVDFKDHFNINRYDMLPKKFAEAALSYWMTWEPSTNTKMKILEMNAYEL” was “not soluble”; that for “MGGSHHHHHHGMASMTGGQQMGRTLYDDDDKDRWGSRKIVVVGGVAGGASVAARLRRLSEEDEIIMVERGEYISFANCGLPYYIGGVITERQKLLVQTVERMSKRFNLDIRVLSEVVKINKEEKTITIKNVTTNETYNEAYDVLILSPGAKPIVPSIPGIEEAKALFTLRNVPDTDRIKAYIDEKKPRHATVIGGGFIGVEMVENLRERGIEVTLVEMANQVMPPIDYEMAAYVHEHMKNHDVELVFEDGVDALEENGAVVRLKSGSVIQTDMLILAIGVQPESSLAKGAGLALGVRGTIKVNEKFQTSDPHIYAIGDAIEVKDFVTETETMIPLAWPANRQGRMLADIIHGHTDSLYKGTLGTSVAKVFDLTVATTGLNEKILKRLNIPYEVVHVQANSHAGYYPNATPVLIKLIFNKDSGKIYGAQTLGRDGVDKRMDVIATAIKANLTVLDLPDLELSYAPPYSSAKDPVNMVGYAASNIVDGFVDTVQWHEIDRIVENGGYLIDVREPNELKQGMIKGSINIPLDELRDRLEEVPVDKDIYITCQLGMRGYVAARMLMEKGYKVKNVDGGFKLYGTVLPERIVY” was “soluble”. “MAHHHHHHMMRERAAALDDLNALLTVNKDHPQGLALRMSLNTQLGNLVDAHRDGKHLVRVYKALNKPDKSQQTSEKVHRLERYTVRWTALSDLWSQPVGAYTAATNDAVLMRKYRECVDLLARIIHEFSMESVELRLRRAACALAADDNIAATQELKYVTQRSPQNLDAIALNAQALRRLGALDQSMSELRRCLNLDPEYAPCANLHKLIRQQQRMTKNIEKRLQEKKFEAVVQLIAETRAAEPHAPYEEQLAAWHCEALVSLRSTDEGIRVCQALVDRYDGANNPTVFDAHIRLAELHLLDDNIAAAEAALQKAREIRQHDGKVEEMRLKIEKLKRTGPRKDYYKILGLKKTASAQEIRRAYRKLAKSSHPDQLRSKDMTDREREKQEKMFRDVNEAKEVLLDEEKRARYDSGEDVNQPAGQRGEPFFGSHFAGGFPGGFPGGFPGGFPGGFPGGFHQQRDGGVHQQFFFFNREN”: the “soluble on expression in E. coli” value is recorded as “not soluble”. On to “IHVNSKEEAIISLVDVVSKEGYLIDKNQFLKDVLKREETLSTYIGHGIGLPHSQSVGVKNSCITIGKLDTPIEWTEEGEKVDLIFLISVTKDNENNLHLKILSKLARLLMHESFRNQIRCSDEQTVYNLIKEKIEE”, for which the “soluble on expression in E. coli” value is on record as “not soluble”.
